In patent US20250388664A1 (BIOARCTIC, published 2025):
Where a chain is given by its changes, count along the chain named. In names and notes the source's numbering stands.

B1: h26D3 variant HC2 Fab (Fab, V domains shown)
VH: EVQLVQSGAEVKKPGSSVKVSCKASGYIFTDANMDWVRQAPGQGLEWIGDINPDYDTTSYNEKFKGRATLTVDKSTSTAYMELSSLRSEDTAVYYCARGGYSGSSYYHPMDYWGQGTLVTVSS
VL: DIQMTQSPSSVSASVGDRVTITCKSSQSLLYSTNQKNYLAWYQQKPGKAPKLLIYWASTRESGVPSRFSGSGSGTDFTLTISSLQPEDFATYYCQQYFIYPRTFGQGTKVEIK
notes: Single-mutant His-tagged Fab; also called Y32A
B2: h26D3 variant HC3 Fab (Fab, V domains shown)
VH: B1 VH with A32Y, D35A
VL: B1 VL
notes: Single-mutant His-tagged Fab; also called D35A
B3: h26D3 variant HC4 Fab (Fab, V domains shown)
VH: B1 VH with A32Y, D50A
VL: B1 VL
notes: Single-mutant His-tagged Fab; also called D50A
B4: h26D3 variant HC5 Fab (Fab, V domains shown)
VH: B1 VH with A32Y, D54A
VL: B1 VL
notes: Single-mutant His-tagged Fab; also called D54A
B5: h26D3 variant HC6 Fab (Fab, V domains shown)
VH: B1 VH with A32Y, Y55A
VL: B1 VL
notes: Single-mutant His-tagged Fab; also called Y55A
B6: h26D3 variant HC8 Fab (Fab, V domains shown)
VH: B1 VH with A32Y, Y60A
VL: B1 VL
notes: Single-mutant His-tagged Fab; also called Y60A
B7: h26D3 variant HC10 Fab (Fab, V domains shown)
VH: B1 VH with A32Y, Y106A
VL: B1 VL
notes: Single-mutant His-tagged Fab; also called Y106A
B8: h26D3 variant HC11 Fab (Fab, V domains shown)
VH: B1 VH with A32Y, Y107A
VL: B1 VL
notes: Single-mutant His-tagged Fab; also called Y107A
B9: h26D3 variant LC1 Fab (Fab, V domains shown)
VH: B1 VH with A32Y
VL: B1 VL with Y31A
notes: Single-mutant His-tagged Fab; also called Y31A
B10: h26D3-HC6_DS, VL-first (scFv)
scFv: DIQMTQSPSSVSASVGDRVTITCKSSQSLLYSTNQKNYLAWYQQKPGKAPKLLIYWASTRESGVPSRFSGSGSGTDFTLTISSLQPEDFATYYCQQYFIYPRTFGCGTKVEIKGGGGSGGGGSGGGGSGGGGSEVQLVQSGAEVKKPGSSVKVSCKASGYIFTDYNMDWVRQAPGQCLEWIGDINPDADTTSYNEKFKGRATLTVDKSTSTAYMELSSLRSEDTAVYYCARGGYSGSSYYHPMDYWGQGTLVTVSS
B11: h26D3 HC6 DS T91A (scFv)
scFv: HHHHHHGGGGSGGGGSGGGGSGGGGSDIQMTQSPSSVSASVGDRVTITCKSSQSLLYSTNQKNYLAWYQQKPGKAPKLLIYWASTRESGVPSRFSGSGSGTDFTLTISSLQPEDFATYYCQQYFIYPRTFGCGTKVEIKGGGGSGGGGSGGGGSGGGGSEVQLVQSGAEVKKPGSSVKVSCKASGYIFTDYNMDWVRQAPGQCLEWIGDINPDADTTSYNEKFKGRATLTVDKSTSTAYMELSSLRSEDAAVYYCARGGYSGSSYYHPMDYWGQGTLVTVSS
notes: also called h26D3 DS T91A
B12: h26D3 HC6 DS L118S (scFv)
scFv: B11 scFv with A250T, L277S
notes: also called h26D3 DS L118S
B13: h26D3 HC6 DS S16E (scFv)
scFv: B11 scFv with S175E, A250T
notes: also called h26D3 DS S16E
B14: h26D3 HC6 DS S16E L118S (scFv)
scFv: B11 scFv with S175E, A250T, L277S
notes: also called h26D3 DS S16E L118S
B15: h26D3 HC6 DS S122K (scFv)
scFv: B11 scFv with A250T, S281K
notes: also called h26D3 DS S122K
B16: h26D3 HC6 DS T91S S122K (scFv)
scFv: B11 scFv with A250S, S281K
notes: also called h26D3 DS T91S S122K
B17: h26D3 HC6 DS T91S T120K (scFv)
scFv: B11 scFv with A250S, T279K
notes: also called h26D3 DS T91S T120K
B18: h26D3 HC6 DS T120K (scFv)
scFv: B11 scFv with A250T, T279K
notes: also called h26D3 DS T120K
B19: h26D3 HC6 DS V11R (scFv)
scFv: B11 scFv with V170R, A250T
notes: also called h26D3 DS V11R
B20: h26D3 HC6 DS V11R T91A (scFv)
scFv: B11 scFv with V170R
notes: also called h26D3 DS V11R T91A
B21: h26D3 HC6 DS V11R T120K (scFv)
scFv: B11 scFv with V170R, A250T, T279K
notes: also called h26D3 DS V11R T120K

What was measured:
[1] = molecular target: T1, truncated hTfR1 of SEQ ID NO:122 (human, UniProt P02786 122-760); experiment: SPR, TfR1 amine-coupled, Fab injected, 1:1 fit
T1 construct: also called human TfR1; Human TfR1
T1 sequence (P02786 other isoform, or with tags, fused parts or gaps limits assumed): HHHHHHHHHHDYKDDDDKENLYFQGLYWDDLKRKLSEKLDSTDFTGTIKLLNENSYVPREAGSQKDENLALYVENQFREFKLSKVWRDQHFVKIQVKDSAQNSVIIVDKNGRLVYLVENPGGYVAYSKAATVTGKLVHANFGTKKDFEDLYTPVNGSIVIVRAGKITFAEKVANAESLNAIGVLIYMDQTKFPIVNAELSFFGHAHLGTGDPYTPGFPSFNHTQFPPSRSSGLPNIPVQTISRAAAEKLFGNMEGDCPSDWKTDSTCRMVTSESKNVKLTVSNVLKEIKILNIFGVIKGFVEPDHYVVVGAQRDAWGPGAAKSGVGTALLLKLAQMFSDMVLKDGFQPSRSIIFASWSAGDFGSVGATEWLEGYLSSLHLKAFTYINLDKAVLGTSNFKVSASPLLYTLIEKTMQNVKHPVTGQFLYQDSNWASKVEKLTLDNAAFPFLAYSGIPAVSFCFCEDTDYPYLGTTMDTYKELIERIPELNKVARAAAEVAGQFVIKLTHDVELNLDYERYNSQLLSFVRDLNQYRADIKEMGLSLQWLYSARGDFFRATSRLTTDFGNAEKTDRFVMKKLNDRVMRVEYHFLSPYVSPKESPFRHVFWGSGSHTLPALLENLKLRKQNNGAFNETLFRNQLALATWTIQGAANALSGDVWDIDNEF
Experimental: (§1) Binding of the purified Fabs to human and cynomolgus TfR1 was evaluated using either SPR (FIG. 44) or indirect ELISA (FIG. 45). For SPR, a Biacore 8K instrument (Cytiva) was used. […] The Fabs were injected over the chip using a 2-fold dilution series in four steps starting at 100 nM. The interaction was measured using the single cycle kinetics method with a contact time of 120 s at a flow rate of 30 μl/min followed by a dissociation time of 1000 s. Regeneration of the surface between cycles was done by injecting 3M MgCl₂. The binding data was fitted to a 1:1 interaction model. The Fabs were diluted in HBS-EP+ (Cytiva, #BR100669). Experiments were performed at 25° C.

[2] = molecular target: T2, truncated cTfR1 of SEQ ID NO:123 (cynomolgus monkey, UniProt Q5RDH6 122-760 (Pongo abelii entry)); experiment: SPR, TfR1 amine-coupled, Fab injected, 1:1 fit
T2 construct: also called cynomolgus TfR1
T2 chain: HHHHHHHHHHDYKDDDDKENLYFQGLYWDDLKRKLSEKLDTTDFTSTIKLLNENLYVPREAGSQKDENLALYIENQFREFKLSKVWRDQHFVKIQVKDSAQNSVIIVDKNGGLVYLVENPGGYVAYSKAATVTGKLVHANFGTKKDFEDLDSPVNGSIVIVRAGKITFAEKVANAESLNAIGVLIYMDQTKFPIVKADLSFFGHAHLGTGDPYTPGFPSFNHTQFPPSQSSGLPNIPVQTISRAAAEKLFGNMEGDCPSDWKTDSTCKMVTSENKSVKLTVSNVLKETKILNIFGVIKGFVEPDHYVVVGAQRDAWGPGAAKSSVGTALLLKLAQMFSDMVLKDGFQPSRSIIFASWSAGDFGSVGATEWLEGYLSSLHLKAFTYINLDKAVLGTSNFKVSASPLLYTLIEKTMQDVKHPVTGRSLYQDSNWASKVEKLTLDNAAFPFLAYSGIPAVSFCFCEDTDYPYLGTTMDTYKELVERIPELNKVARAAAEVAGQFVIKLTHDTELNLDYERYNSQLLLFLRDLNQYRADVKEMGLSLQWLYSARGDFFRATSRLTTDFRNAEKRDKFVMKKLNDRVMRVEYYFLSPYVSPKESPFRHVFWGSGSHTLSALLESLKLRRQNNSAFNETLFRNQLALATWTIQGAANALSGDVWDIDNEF
Experimental: as §1

[3] = molecular target: T1, truncated hTfR1 of SEQ ID NO:122; experiment: SPR, FLAG-captured TfR1, scFv injected, 1:1 fit
Experimental: (§2) The interaction was measured using the single cycle kinetics method with a contact time of 120 s at a flow rate of 30 μl/min followed by a dissociation time of 600 s. Regeneration of the surface between cycles was done by injecting 10 mM glycine-HCl, pH 1.7. The binding data was fitted to a 1:1 interaction model. The scFv variants were diluted in HBS-EP+ (Cytiva. #BR100669). Experiments were performed at 25° C.

[4] = molecular target: T2, truncated cTfR1 of SEQ ID NO:123; experiment: SPR, FLAG-captured TfR1, scFv injected, 1:1 fit
Experimental: as §2

[5] = molecular target: T1, truncated hTfR1 of SEQ ID NO:122; experiment: SPR follow-up, 4 replicates, FLAG-captured hTfR1, scFv injected
Experimental: as §2
The selected molecules were produced as described above.

Binder | Kd [1] | Kd [2] | Kd [3] | koff [3] | kon [3] | Kd [4] | koff [4] | kon [4] | Kd [5] | koff [5] | kon [5]
B1 | 8.7 nM | 12 nM |  |  |  |  |  |  |  |  | 
B2 | 16 nM | 168 nM |  |  |  |  |  |  |  |  | 
B3 | 5.1 nM | 8 nM |  |  |  |  |  |  |  |  | 
B4 | 20 nM | 39 nM |  |  |  |  |  |  |  |  | 
B5 | 156 nM | 164 nM |  |  |  |  |  |  |  |  | 
B6 | 10 nM | 19 nM |  |  |  |  |  |  |  |  | 
B7 | 9.2 nM | 4.6 nM |  |  |  |  |  |  |  |  | 
B8 | 388 nM | 2.7 nM |  |  |  |  |  |  |  |  | 
B9 | 14 nM | 70 nM |  |  |  |  |  |  |  |  | 
B10 |  |  | 68.9 nM | 0.00434 s⁻¹ | 63500 M⁻¹ s⁻¹ | 246 nM | 0.0114 s⁻¹ | 47600 M⁻¹ s⁻¹ | 66.2 nM | 0.00439 s⁻¹ | 67100 M⁻¹ s⁻¹
B11 |  |  | 59.7 nM | 0.00388 s⁻¹ | 65000 M⁻¹ s⁻¹ | 240 nM | 0.0111 s⁻¹ | 46200 M⁻¹ s⁻¹ |  |  | 
B12 |  |  | 60 nM | 0.00393 s⁻¹ | 66200 M⁻¹ s⁻¹ | 243 nM | 0.0107 s⁻¹ | 44000 M⁻¹ s⁻¹ |  |  | 
B13 |  |  | 68.9 nM | 0.00397 s⁻¹ | 57700 M⁻¹ s⁻¹ | 277 nM | 0.0121 s⁻¹ | 43800 M⁻¹ s⁻¹ |  |  | 
B14 |  |  | 67.1 nM | 0.00387 s⁻¹ | 57800 M⁻¹ s⁻¹ | 261 nM | 0.0109 s⁻¹ | 41700 M⁻¹ s⁻¹ |  |  | 
B15 |  |  | 53.7 nM | 0.00407 s⁻¹ | 76400 M⁻¹ s⁻¹ | 170 nM | 0.0103 s⁻¹ | 61500 M⁻¹ s⁻¹ | 62.6 nM | 0.00482 s⁻¹ | 85800 M⁻¹ s⁻¹
B16 |  |  | 50.5 nM | 0.0038 s⁻¹ | 76200 M⁻¹ s⁻¹ | 221 nM | 0.0108 s⁻¹ | 48600 M⁻¹ s⁻¹ | 69.5 nM | 0.00463 s⁻¹ | 67000 M⁻¹ s⁻¹
B17 |  |  | 66.2 nM | 0.00409 s⁻¹ | 61900 M⁻¹ s⁻¹ | 245 nM | 0.0115 s⁻¹ | 46700 M⁻¹ s⁻¹ | 55.5 nM | 0.00465 s⁻¹ | 87200 M⁻¹ s⁻¹
B18 |  |  | 59.3 nM | 0.00429 s⁻¹ | 75100 M⁻¹ s⁻¹ | 197 nM | 0.0113 s⁻¹ | 57400 M⁻¹ s⁻¹ | 71.3 nM | 0.00478 s⁻¹ | 67300 M⁻¹ s⁻¹
B19 |  |  | 54 nM | 0.00465 s⁻¹ | 90400 M⁻¹ s⁻¹ | 222 nM | 0.0113 s⁻¹ | 51500 M⁻¹ s⁻¹ |  |  | 
B20 |  |  | 61.3 nM | 0.00458 s⁻¹ | 76100 M⁻¹ s⁻¹ | 206 nM | 0.012 s⁻¹ | 58100 M⁻¹ s⁻¹ | 58.7 nM | 0.00419 s⁻¹ | 74900 M⁻¹ s⁻¹
B21 |  |  | 60.2 nM | 0.00441 s⁻¹ | 73300 M⁻¹ s⁻¹ | 201 nM | 0.0124 s⁻¹ | 61300 M⁻¹ s⁻¹ | 48.6 nM | 0.00449 s⁻¹ | 95700 M⁻¹ s⁻¹
